Source: patent US20140056918A1 (Novo Nordisk, published 2014)

T1: Human OSCAR (osteoclast-associated receptor), full length, on cells (human)
T1 chain: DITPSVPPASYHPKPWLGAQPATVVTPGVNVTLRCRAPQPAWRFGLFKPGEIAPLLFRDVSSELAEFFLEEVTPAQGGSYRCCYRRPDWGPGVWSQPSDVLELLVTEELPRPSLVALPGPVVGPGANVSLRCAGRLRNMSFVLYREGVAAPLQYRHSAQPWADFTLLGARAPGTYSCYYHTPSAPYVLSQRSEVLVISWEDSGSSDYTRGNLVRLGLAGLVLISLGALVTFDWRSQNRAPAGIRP

T2: Human OSCAR-S1a (naturally occurring soluble isoform) (human, UniProt Q8IYS5 19-282)
T2 construct: Recombinant soluble isoform used as SPR analyte; also called OSCAR 1Sa
T2 sequence: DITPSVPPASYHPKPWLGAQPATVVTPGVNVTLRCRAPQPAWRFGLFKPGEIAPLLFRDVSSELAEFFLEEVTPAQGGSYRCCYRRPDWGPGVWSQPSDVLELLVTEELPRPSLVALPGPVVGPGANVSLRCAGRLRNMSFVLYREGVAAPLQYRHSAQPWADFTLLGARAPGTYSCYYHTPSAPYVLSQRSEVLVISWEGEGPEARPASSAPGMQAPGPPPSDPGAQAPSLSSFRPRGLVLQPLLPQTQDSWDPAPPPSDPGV

B1: Human OSCAR-ECD (recombinant extracellular domain of human OSCAR) (receptor)
chain: DITPSVPPASYHPKPWLGAQPATVVTPGVNVTLRCRAPQPAWRFGLFKPGEIAPLLFRDVSSELAEFFLEEVTPAQGGSYRCCYRRPDWGPGVWSQPSDVLELLVTEELPRPSLVALPGPVVGPGANVSLRCAGRLRNMSFVLYREGVAAPLQYRHSAQPWADFTLLGARAPGTYSCYYHTPSAPYVLSQRSEVLVISWEDSGSSDYTR
notes: also called OSACAR-ECD

Tests used:
[1] = target: T1, Human OSCAR (osteoclast-associated …); test: cell-based or functional assay
[2] = target: T1, Human OSCAR (osteoclast-associated …); test: flow cytometry on primary human monocytes, donor #1
Description: (§1) Cell number and viability were determined using a Cedex cell counter. The cells were diluted in washing buffer (1×PBS (—Ca²⁺/—Mg²⁺)+5% FBS+0.1% Na-azide) to […]. In the case of monocytes, the cells were further blocked by adding 10 μl of a hFcR blocker (Miltenyi, #130-059-901) and incubated for 10 minutes at 4° C. 50 μl of cells (50.000 cells/well) were seeded into 96 well round-bottomed microtiter plates. Hybridoma supernatants or purified antibodies (in serial dilutions) were added to the cells at 50 μl/well. The isotype-matched purified irrelevant human mAb or mouse mAb served as negative controls (mouse IgG1, BD, #553452; mouse IgG2a, BD, #557353; mouse IgG2b, BD, #557352). […] Cells were washed in PBS, re-suspended in fixation buffer (1×PBS (—Ca²⁺/—Mg²⁺), pH7.2+1% formalin (B&B, #LAB96751.0500) and analysed by FACS flow cytometer. EC₅₀ values were calculated using a GraphPad Prism 5 software.

[3] = target: T1, Human OSCAR (osteoclast-associated …); test: flow cytometry on primary human monocytes, donor #2
Description: as §1

[4] = target: B1; test: SPR competition, 50 nM OSCAR-ECD premixed with mAb, over immobilised collagen I
Description: (§2) The experiment was performed using a Biacore T 100 instrument (GE Healthcare). Human collagen 1 (Sigma, # C5483) and human collagen 2 (Millipore #CC052) were diluted with 10 mM NaOAc, pH 4.5 and immobilized on a Biacore CM3 sensor chip (GE Healthcare) using amine coupling chemistry (GE Healthcare). Immobilization was performed according to the standard procedure, but at 5° C. in order to prevent aggregation collagens, with immobilized levels of ca 250 RU on flow cells (FC) 2 and 4. A blank immobilization was performed on FC 1 & 3, which were used as reference cells. HBS-EP buffer (10 mM HEPES, 150 mM NaCl, 3 mM EDTA, 0.05% Polysorbat P20, pH7.4) was used as running buffer for the immobilization. Buffer containing HBS-EP/+0.1% BSA was used for the competition assay. The competition experiment was performed at 5° C. at a flow rate of 50 μl/min. […] OSCAR was mixed with various concentrations of anti-OSCAR antibodies ranging from 0-10 μg/ml prior to injection. Binding curves were measured for 360 s followed by 240 s of dissociation. The chip surface was regenerated for 2×20 s with 10 mM glycine, pH 2.0 between assays.
(§3) Human collagen I and II were immobilized to the surface of a Biacore sensor chip by amine coupling. […] It was hypothesized that an antibody inhibiting binding of OSCAR to collagen would lead to a concentration-dependent loss of signal, whereas a non-inhibiting antibody would enhance the signal due to the increased mass of the OSCAR-antibody complex.

[5] = target: B1; test: SPR (Biacore T100), mAb coupled or captured on chip, OSCAR-ECD injected, 1:1 fit
Description: The kinetic parameters (kₐ, kd and KD) for the interaction were calculated using a 1:1 interaction Langmuir fitting model.

[6] = target: B1; test: SPR competition, 50 nM OSCAR-ECD premixed with mAb, over immobilised collagen II; set-up: unit not given here
Description: as §2, §3

[7] = target: B1; test: SPR competition, 50 nM OSCAR-ECD premixed with mAb, over ColI immobilised at ca 150 RU
Description: (§4) The experiment was performed using a Biacore T 100 instrument (GE Healthcare). Human ColI (Sigma, # C5483) was diluted with 10 mM NaOAc, pH 4.5 to 10 μg/ml and immobilized on a Biacore CM3 sensor chip (GE Healthcare) using amine coupling chemistry (GE Healthcare). Immobilization was performed according to the standard procedure, but at 4° C. in order to prevent aggregation of ColI, with immobilized levels of ca 150 RU on flow cell (FC) 2 and ca 300 RU on FC 4. A blank immobilization was performed on FC 1 & 3, which were used as reference cells. HBS-EP buffer (10 mM HEPES, 150 mM NaCl, 3 mM EDTA, 0.005% Polysorbat P20, pH7.4) was used as running buffer for the immobilization. Buffer containing HBS-EP/+0.1% BSA was used for the competition assay.
(§5) The competition experiment was performed at 4° C. at a flow rate of 50 μl/min. […] OSCAR was mixed with various concentrations of anti-OSCAR antibodies ranging from 0-5 μg/ml prior to injection. Binding curves were measured for 240 s followed by 200 s of dissociation. The chip surface was regenerated for 2×20 s with 10 mM glycine, pH 2.0 between assays. All assays were performed in duplicates.
(§6) Human ColI was immobilized to the surface of a Biacore sensor chip by amine coupling.

[8] = target: B1; test: SPR competition, 50 nM OSCAR-ECD premixed with mAb, over ColI immobilised at ca 300 RU
Description: as §4, §5, §6

[9] = target: T2, Human OSCAR-S1a (naturally occurring …); test: SPR competition, 50 nM OSCAR-S1a premixed with mAb, over ColI immobilised at ca 150 RU
Description: as §4, §5, §6

[10] = target: T2, Human OSCAR-S1a (naturally occurring …); test: SPR competition, 50 nM OSCAR-S1a premixed with mAb, over ColI immobilised at ca 300 RU
Description: as §4, §5, §6

[11] = target: T3, Human collagen I (Sigma, #C5483) (human, UniProt P02452 162-1218; P08123 80-1119); test: SPR
T3 construct: Bought collagen preparation, immobilised by amine coupling or coated on plates; also called ColI; colI
T3 sequence (P02452 162-1218, chain 1 of 2): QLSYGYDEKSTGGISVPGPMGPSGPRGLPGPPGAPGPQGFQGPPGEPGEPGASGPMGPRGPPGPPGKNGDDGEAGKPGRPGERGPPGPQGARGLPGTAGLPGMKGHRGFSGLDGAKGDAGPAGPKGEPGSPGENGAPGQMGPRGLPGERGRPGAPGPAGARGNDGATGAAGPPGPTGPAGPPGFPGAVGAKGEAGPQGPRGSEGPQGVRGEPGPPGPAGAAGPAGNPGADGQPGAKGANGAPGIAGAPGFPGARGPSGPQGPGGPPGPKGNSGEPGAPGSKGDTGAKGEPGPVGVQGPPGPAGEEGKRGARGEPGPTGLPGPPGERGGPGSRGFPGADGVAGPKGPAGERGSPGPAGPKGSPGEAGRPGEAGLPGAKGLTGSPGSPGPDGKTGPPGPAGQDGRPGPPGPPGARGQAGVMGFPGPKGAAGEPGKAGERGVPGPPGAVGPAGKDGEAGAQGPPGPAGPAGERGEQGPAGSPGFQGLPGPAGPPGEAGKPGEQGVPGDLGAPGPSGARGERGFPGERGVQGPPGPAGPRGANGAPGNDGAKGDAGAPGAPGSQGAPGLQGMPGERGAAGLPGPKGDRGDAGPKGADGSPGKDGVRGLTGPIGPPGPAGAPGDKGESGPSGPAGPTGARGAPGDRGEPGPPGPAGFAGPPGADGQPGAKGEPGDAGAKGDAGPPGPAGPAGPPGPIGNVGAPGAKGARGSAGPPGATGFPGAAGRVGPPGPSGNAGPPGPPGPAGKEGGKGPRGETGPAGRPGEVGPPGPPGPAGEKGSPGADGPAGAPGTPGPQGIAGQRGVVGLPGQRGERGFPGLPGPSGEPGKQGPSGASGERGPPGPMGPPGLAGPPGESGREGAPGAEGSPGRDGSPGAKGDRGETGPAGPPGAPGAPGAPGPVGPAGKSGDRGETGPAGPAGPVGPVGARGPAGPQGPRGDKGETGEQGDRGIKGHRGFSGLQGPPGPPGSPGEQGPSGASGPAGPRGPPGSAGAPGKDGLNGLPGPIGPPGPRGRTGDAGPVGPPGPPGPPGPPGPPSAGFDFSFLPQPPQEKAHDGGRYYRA
T3 sequence (P08123 80-1119, chain 2 of 2): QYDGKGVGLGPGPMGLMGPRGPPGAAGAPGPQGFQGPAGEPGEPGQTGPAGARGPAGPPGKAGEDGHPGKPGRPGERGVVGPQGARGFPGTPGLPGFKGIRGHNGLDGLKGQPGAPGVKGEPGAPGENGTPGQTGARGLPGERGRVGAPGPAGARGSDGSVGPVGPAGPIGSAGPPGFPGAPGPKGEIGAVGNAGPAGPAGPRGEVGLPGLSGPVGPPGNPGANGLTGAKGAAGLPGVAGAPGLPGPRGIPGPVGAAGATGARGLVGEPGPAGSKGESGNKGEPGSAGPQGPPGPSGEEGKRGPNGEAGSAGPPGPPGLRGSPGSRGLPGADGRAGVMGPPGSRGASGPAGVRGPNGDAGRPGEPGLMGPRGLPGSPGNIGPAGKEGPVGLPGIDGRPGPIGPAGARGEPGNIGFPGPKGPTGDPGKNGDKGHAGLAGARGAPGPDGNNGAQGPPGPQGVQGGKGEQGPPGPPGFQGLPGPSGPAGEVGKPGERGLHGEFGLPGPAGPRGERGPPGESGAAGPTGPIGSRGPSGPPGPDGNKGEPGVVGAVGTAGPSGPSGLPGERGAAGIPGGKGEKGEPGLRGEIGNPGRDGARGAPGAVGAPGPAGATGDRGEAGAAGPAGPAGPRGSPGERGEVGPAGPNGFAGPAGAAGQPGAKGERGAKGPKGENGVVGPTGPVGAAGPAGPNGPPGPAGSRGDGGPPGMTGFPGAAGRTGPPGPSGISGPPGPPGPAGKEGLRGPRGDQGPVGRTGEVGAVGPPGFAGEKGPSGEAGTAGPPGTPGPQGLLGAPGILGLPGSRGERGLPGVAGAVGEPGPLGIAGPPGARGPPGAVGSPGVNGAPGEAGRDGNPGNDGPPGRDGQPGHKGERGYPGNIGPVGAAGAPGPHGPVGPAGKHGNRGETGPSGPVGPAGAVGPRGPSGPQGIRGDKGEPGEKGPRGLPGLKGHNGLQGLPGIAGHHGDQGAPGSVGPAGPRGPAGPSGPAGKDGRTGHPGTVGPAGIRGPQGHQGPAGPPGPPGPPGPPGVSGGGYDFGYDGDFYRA

Binder	IC50 (IL-8), ColI-induced IL-8 release from moDC, Donor 1 [1] [nM]	IC50 (IL-8), ColI-induced IL-8 release from moDC, Donor 4 [1] [nM]	IC50 (IL-8), ColI-induced IL-8 release from moDC, Donor 5 [1] [nM]	IC50 (IL-8), ColI-induced IL-8 release from moDC, Donor 6 [1] [nM]	EC50 [2] [nM]	EC50 [3] [nM]	binding of OSCAR-ECD to collagen I with 10 µg/mL mAb [4]	Kd [5] [nM]	binding of OSCAR-ECD to collagen II with 10 µg/mL mAb [6]	Binding [RU] of OSCAR to ColI with 5 µg mAb [7] [RU]	Binding [RU] of OSCAR to ColI with 5 µg mAb [8] [RU]	Binding [RU] of OSCAR to ColI with 5 µg mAb [9] [RU]	Binding [RU] of OSCAR to ColI with 5 µg mAb [10] [RU]	IC50 (IL-8), ColI-induced IL-8 release from moDC, Donor 3 [1] [nM]	IC50 (IL-8), ColI-induced IL-8 release from moDC, Donor 2 [1] [nM]	Kd [11] [nM]
13F5A5 (antibody, V domains shown, Fully human anti-OSCAR mAb from HuMab mice; also called 13F5A5 (Hu)) VH: EVQLVQSGAEVKKPGESLKISCKGSGYSFTSYWIVWVRQMPGKGLEWMGSIYPGDSDARYSPSFQGQVTISADKSISTAYLQWSSLKASDTAMYYCARQKITMVRGVIITPLDGMDVWGQGTTVTVSS VL: not shown	2	< 0.01	0.23	0.06	4.02	2.18	-1.4	0.7	1.3	1.4	5.1	-0.2	2			
4F3B (antibody, V domains shown, Mouse anti-human OSCAR mAb (its isotype control is mIgG1); The heavy chain entry covers only VH-CH1 and the start of the hinge; It was fluorescein-labelled in the peptide array and Alexa Fluor 647-labelled in the flow binning; also called mAb 4F3B) VH: QVQLQQSGAELAKPGASVKMSCKASGFTFTSYWMHWVKQRPGQGLEWIGYINPSTDYTEYNQKFKDKATLTADKSSSTAYMQLSSLTSEDSAVYYCARRSPFAMDYWGQGTSVTVSS VL: DIVMTQSPSSLTVTAGEKVTMSCKSSQSLLNSGNQKNYLTWYQQKPGQPPKVLIYWASTRESGVPDRFTGSGSGTDFTLTISSVQAEDLAVYYCQNDYSYPLTFGTGTKLELKR	0.19	0.12	0.43	0.24	0.66	0.32	0.7	1.7	6.7	0.9	3.6	-0.3	1.4	0.4		
3F7A9 (antibody, V domains shown, Mouse anti-human OSCAR mAb (its isotype control is mIgG1); The heavy chain entry covers only VH-CH1 and the start of the hinge; also called 3F7A9-1) VH: EIQLQQSGPELVKPGASVKVSCKASGYVFTSYNMYWVKQSHGKSLEWIGYIDPYNGGTRYNQKFKGKATLTVDKSSSTAYMHLNSLTSEDSAVYYCARLDYYGNFYWGQGTTLTVSS VL: DIKMTQSPSSMYASLGERVTITCKASQDINSFLSWLQQKPGKSPKTLIYRANRLVDGVPSRFSGSGSGQDYSLTISSLEYEDMGIYYCLQYDDFPYTFGGGTKLEIKR	0.16	0.06	0.05	0.1	1.79	0.14	132	9.1	246	82.5	130	58.9	92.6	0.41	0.06	
B1																255
